Laboratory results from paper PMC11705898.

How the values were obtained:
[1] = biological target: S. aureus PitR with amino terminal histidine tag (pETphoU2_6xHN) (S. aureus Mu50); assay: SEC; HiPrep 16/60 Sephacryl S-200 HR, 50 mM NaPO4, 150 mM NaCl pH 7.0, 0.5 mL/min; elution volume compared with volumes calculated from protein standards; loaded immediately after Ni purification
[2] = biological target: S. aureus PhoU with amino terminal histidine tag (pETphoU1_6xHN) (S. aureus Mu50); assay: as above

stoichiometry N [1]	stoichiometry N [2]	Substance
2		S. aureus PitR with amino terminal histidine tag (pETphoU2_6xHN) (natural protein)
	2	S. aureus PhoU with amino terminal histidine tag (pETphoU1_6xHN) (natural protein)
